According to patent US20100273988A1 (Chugai, published 2010):

Columns and labels:
[1] = target: HB-EGF protein (R&D Systems, Inc., 259-HE) (human, UniProt Q99075 63-148); assay: cell-based or functional assay
[2] = target: proHB-EGF mutated at the protease cleavage site, expressed on Ba/F3 cells (HB-EGF_Ba/F3) (human) (UniProt Q99075); assay: flow cytometry, hybridoma culture supernatant on HB-EGF_Ba/F3 cells, FITC-anti-mouse IgG; EXP. 2 (no-mAb control 6.9)
[3] = target: proHB-EGF mutated at the protease cleavage site, expressed on Ba/F3 cells (HB-EGF_Ba/F3) (human) (UniProt Q99075); assay: flow cytometry, hybridoma culture supernatant on HB-EGF_Ba/F3 cells, FITC-anti-mouse IgG; EXP. 1 (no-mAb control 19.1)

Sequence of proHB-EGF mutated at the protease cleavage site, expressed on Ba/F3 cells (HB-EGF_Ba/F3) (human) (Q99075 20-208 limits assumed, change not shown): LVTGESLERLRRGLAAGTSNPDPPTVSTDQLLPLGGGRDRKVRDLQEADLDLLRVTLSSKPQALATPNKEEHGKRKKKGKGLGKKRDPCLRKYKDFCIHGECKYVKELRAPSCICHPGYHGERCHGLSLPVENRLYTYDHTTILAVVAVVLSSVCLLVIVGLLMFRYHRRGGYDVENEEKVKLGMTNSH
Sequence of HB-EGF protein (R&D Systems, Inc., 259-HE) (Q99075 63-148 limits assumed): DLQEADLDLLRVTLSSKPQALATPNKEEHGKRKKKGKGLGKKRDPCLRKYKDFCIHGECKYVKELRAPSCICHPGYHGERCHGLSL

B1: HC-15 (antibody, V domains shown)
VH: EVQLQQSGPELVKPGASVKISCKASGYSFTGYYMHWVKQSPEKRLEWIGEINPRTGITTYNQKFKAKATLTVDKSSSTAYMQLKSLTSEDSAVYYCARVGSSGPFTYWGQGTLVTVSA
VL: DIVMTQSPSSLSVSAGDKVTMSCKSSQSLLNSRNQKNYLAWYQQKPWQPPKLLIYGASTRESGVPDRFTGSGSGTDFTLTISSVQAEDLAVYYCQNDYSYPFTFGTGTKLEIK
[1]
  EC50 (nM) of the growth-inhibiting effect on EGFR_Ba/F3 cells in the presence of HB-EGF (80 ng/mL): 3.8 nM
[2]
  FACS (GEO-mean): 234 GEO-mean
[3]
  FACS (GEO-mean): 594 GEO-mean
